# Measurements as given in the nanobody polyreactivity screen of Harvey et al. (2022).
# Experiment: yeast display, Sf9 membrane polyspecificity reagent, FACS + sequencing; frameworks hold sequencing errors
# Procedure, shortened: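 Using colony PCR, genes from sorted yeast display clones were amplified, then sequenced on MiSeq at 2 × 250 and filtered by CDR length. The clones had been stained with 10% biotinylated, detergent-solubilized Sf9 membrane reagent for 1 hour at 4 °C and sorted by FACS into low and high (top ~1%) gates on anti-HA and streptavidin fluorescence. Polyreactivity labels come from the gate of origin.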
row,Sequence,polyreactivity (PSR sort gate)
1,QVQLVESGGGLVQAGGSLRLSCAASGRIFIWYAMGWYRQAPGKERELVAAIDRSGASTYYADSVKGRFTISRDNAKNTVYLQMNSLKPEDTAVYYCAARRDVLWFQYPYGYWGQGTQVTVSS,low polyreactivity
2,QVQLVESGGGLVQAGGSLRLSCAASGRIFIWYTMGWYRQAPGNERELVASITGGGGSTYYADSVKGRFTISRDNAKNTVYFQMNSLKPEETAVYDCNAVYRRRYDYWGQGTQVTVSS,high polyreactivity
3,QVQLVESGGGLVQAGGSLRLSCAASGRIFKANDMGWYRQAPGKERELVAITSSDSTNYADSVKGRFTISRDNAKNTVYLQMNSLKPEDTAVYYCAALSYYYSDRMDYWGQGTQVTVSS,low polyreactivity
4,QVQLVESGGGLVQAGGSLRLSCAASGRIFKDTAMGWYRQAPGKDRELVAGITSIGDNTYYADSVKGRFTISRDNAKNTVYLQMHSLKPEDSAVYDCNALYPYVNGTVPRTTGEYDYWGQGTQVTVSS,low polyreactivity
5,QVQLVESGGGLVQAGGSLRLSCAASGRIFKFNAMGWYRPAPGKERELVAAITTGGGSTYYADSVKGRFTISRDNAKNTVYLQMNSLKPEDSAVYYCATDRRHVYSSRRYYYWVQGTQVTVSS,high polyreactivity
6,QVQLVESGGGLVQAGGSLRLSCAASGRIFKFNAMGWYRQAPGKERELVAATWSGGRTSYADSVKGRFTISRDNAKNTVYLQMNSLKPEDTAVYYCNAADWIVVQYDYWGQGTQVTVSS,low polyreactivity
7,QVQLVESGGGLVQAGGSLRLSCAASGRIFKFNAMGWYRQAPGKVRELVAATWSGGRTSYADSVKGRFTISRDNAKNTVYLQMNSLKPEDTAVYYCNAADWIDVQYDYGGQGTQVTVSS,low polyreactivity
8,QVQLVESGGGLVQAGGSLRLSCAASGRIFKGYAMGWYRQAPGKERELVAAITWRGGTTYYADSVKGRFTISRDNAKNTVYLQMNSLKPEDTAVYYCAAVTRRYVLSTFYYWGQGTQVTVSS,high polyreactivity
9,QVQLVESGGGLVQAGGSLRLSCAASGRIFKGYVMGWYRQAPGKERELVAAISKSGGRTYYADPVKGRFTISRDNAKNTVYLQMNSLKPEDTAVYYCNAVGVVTYSFYYWGQGTQVTVSS,high polyreactivity
10,QVQLVESGGGLVQAGGSLRLSCAASGRIFKHYAMGWSRQAPGKERELVAAITNGGRTNYADSVKGRFTISRDNAKNTVYLQMNSLKPADTAVYYGNSESSPPYSITKFDYWGQGTQVTVSS,low polyreactivity
11,QVQLVESGGGLVQAGGSLRLSCAASGRIFKINAMGWSRQAPGKERDLVATISYSAGRTYYADSEKGRFTISRDSAKNTVYLQMNSLKPEDTAVYYCAARISSYWPYSLLDYWGQGTQVTVSS,high polyreactivity
12,QVQLVESGGGLVQAGGSLRLSCAASGRIFKIYSMGWYRQAPGKERELVAAISYRGTSTYYADSVKGRFTISRDNAKNTVYLQMNSLKPEDTAVYYCARRDTYTRYYWGQGTQVTVSS,high polyreactivity
13,QVQLVESGGGLVQAGGSLRLSCAASGRIFKLYAMGWYRQAPGKERELVAAISTSGGSTYYADSVKGRFTISRDNAKNTVYLQMNSLKPEDTAVFYCAADPLSGYDYWGQGTQVTVSS,high polyreactivity
14,QVQLVESGGGLVQAGGSLRLSCAASGRIFKNNAMGWYRQAPGKERELVAVISGSGGSTYADSVKGRFTISRDNAKNTVYLQLNSLKPADTAVYYCAASRYYRIWYSLLQGYDYWGQGTQVTVSS,high polyreactivity
15,QVQLVESGGGLVQAGGSLRLSCAASGRIFKNYVMGWYRQAPGKERELVAAITYSGGSTRYADSVKGRFTISRDNAKNTVYLQMNSLKPEDTAVYYCAASRTYYRTYTFYYWGQGTQVTVSS,high polyreactivity
16,QVQLVESGGGLVQAGGSLRLSCAASGRIFKPNAMGWYRQAPVKEREFVARITRNTGSTYYADSVKGRFTISRDNAKNTVYLQMNSLKPEDTAVYYCAAGAPSYYYYWGQGTQVTVSS,high polyreactivity
17,QVQLVESGGGLVQAGGSLRLSCAASGRIFKPYVMGWYRQAPGKERELGAAISWGGGRTYYADSVKGRFTISRDNAKNTVYLQMNSLKPEDTAVYYCAAPRRFDYDWGQGTQVTVSS,low polyreactivity
18,QVQLVESGGGLVQAGGSLRLSCAASGRIFKPYVMGWYRQAPGKERELVAAITRGGSTNYADSVKGRFTISRDNAKNTVYLQMNSLKPEDTAVYDCAVYYYGTWGWDDYWGQGTQVTVSS,high polyreactivity
19,QVQLVESGGGLVQAGGSLRLSCAASGRIFKQYTMGWYRQAPGKERELVAAITSSGAGTFYADSVKGRFTISRDNAKNTVYLQMNSLKPEDTAVDYCAAAYYYASRMDYWGQGTQVTVSS,high polyreactivity
20,QVQLVESGGGLVQAGGSLRLSCAASGRIFKRNTMGWYRQAPGKERELVAAITYSGITYYADSVKGRFTISRDNAKNTVYLQMNSLKPEDTAVYYCAKVLYPIGSPRFEYWGQGTQVTVSS,low polyreactivity
21,QVQLVESGGGLVQAGGSLRLSCAASGRIFKSNAMGWYRQAPGKERELVASISRSGSTNYADSVKGRFTISRDNAKNTVYLQMNSLKPEDTAVYYCAKDPDAKGGGYDYWGQGTQVTVSS,low polyreactivity

row,Sequence,polyreactivity (PSR sort gate)
1,QVQLVESGGGLVQAGGSLRLSCAASGRIFKSNAMGWYRQAPGKERELVASITASGGRTYYADSVKGRFTISRDNAKNTVYLQMNSLKPEDTAVYYCAAGRPFSKYGYWGQGTQVTVSS,high polyreactivity
2,QVQLVESGGGLVQAGGSLRLSCAASGRIFKSYAMGWDRQAPGKERELVAAISRSGGRTYYADSVKGRFTISRDNAKNTVYLQMNSLKPEDTAVYYCAATTIVAPYWGQGTQVTVSS,low polyreactivity
3,QVQLVESGGGLVQAGGSLRLSCAASGRIFKSYVMGWYRQAPGKERELVAAISWSGGTYYADSVMGRFTNSRDNAKNTVYLQMNCLKPEDTAVYYCAAYYLGSYNPLDYWGQGTQVTVSS,high polyreactivity
4,QVQLVESGGGLVQAGGSLRLSCAASGRIFKTNAMGWYRQAPGKERELVAGINSSDGSTYYADSVKGRFTISRDIEKNTVYLQMNSLKPEDTAVYYCAAVRYYWGQGTQVTVSS,low polyreactivity
5,QVQLVESGGGLVQAGGSLRLSCAASGRIFKTYAMGWYRQAPGKERELVAAISIRGGSTYYAESVKGRFTISRDNAKNTVYLQMNSLKPEDTAVYYCNALYGRQIVDYDYWGQGTQVTVSS,low polyreactivity
6,QVQLVESGGGLVQAGGSLRLSCAASGRIFKWNAMGWYRQAPGKDRELVAAINLSTRSTYYADSVKGRFTISRDNAKNTVYLEMHSLKTVDTAVYYCAAVTYANYYYDAYYYWGQGSQVTVSS,high polyreactivity
7,QVQLVESGGGLVQAGGSLRLSCAASGRIFKWYAMGWSRQAPGKEWEFVAGISGSAGRTYYADSVKGRCTISRDNAKNTVYLQMNSLKPEDTAVYYCAAVYYSSLYDYWGQGTQVTVSS,low polyreactivity
8,QVQLVESGGGLVQAGGSLRLSCAASGRIFKWYAMGWYRQAPGKERELVAAISRSGGTTYYADSVKGRFTISRDNAKNTVYLQMNSLKPEDTAVYYCATRNIYFSSVDYWGQGTQVTVSS,high polyreactivity
9,QVQLVESGGGLVQAGGSLRLSCAASGRIFKWYAMGWYRQAPGKVRELVAAISARGGRTYYADSVKGRFTISRDNAKNTVYLQMNSLKPEDTAVYYCATDYVKSDAYKYYYWGQGTQVTVSS,high polyreactivity
10,QVQLVESGGGLVQAGGSLRLSCAASGRIFKYNAMGWYRQAPGKERELVAAISSSGGSTYYADSVKGRCTISRDNAKNTVYLQMNSLKPEDTAVYYCAARYNSRVYRYDYWGQGTQVTVSS,high polyreactivity
11,QVQLVESGGGLVQAGGSLRLSCAASGRIFKYYAMGWYRPAPWKKRELVATISVSGGRTYYADSVKGRFTISRDNAKNTVYLQMNSLKPEDTAVYYCAAYSVIRRRVEYGYWGQGTQVTVSS,high polyreactivity
12,QVQLVESGGGLVQAGGSLRLSCAASGRIFKYYAMGWYRQAPGKERELVAAISTSVGSTYYADSVKGRFTISRDNAKNTVYLQMNSLKPEDTAVYYCNTRKYHYFLGGAAGNYWGQGTQVTVSS,high polyreactivity
13,QVQLVESGGGLVQAGGSLRLSCAASGRIFKYYAMGWYRQAPGKERELVAAITSSGVSTYADSVKGRFTISRDNAKNTVYLQMNSLKPEDTAVSYCNAADERSQGWVGCDHWGQCTQVTVSS,low polyreactivity
14,QVQLVESGGGLVQAGGSLRLSCAASGRIFKYYAMGWYRQAPGKERELVATITSGGRTNYADSVKGRFTISRDNAKNTVYLQMNSLKPEDTAVYYCARRPPASSRYDYWGQGTQVTVSS,high polyreactivity
15,QVQLVESGGGLVQAGGSLRLSCAASGRIFKYYAMGWYRQAPGKNRELVATISVSGANTYYADSVKGRFTISRDNAKNPVYLQMNSLKREDTAVYFCAAGYAGVSHITRTSRKSHYGYWGQGTQVTVSS,high polyreactivity
16,QVQLVESGGGLVQAGGSLRLSCAASGRIFKYYARGGYRQAPGKERELVAAISGSGGSTFYADSVKGRFTISRDNAKNTVYLQMNSLKPEDTAVYYCNADEVVWGYNYWGQGTQVTVSS,low polyreactivity
17,QVQLVESGGGLVQAGGSLRLSCAASGRIFKYYSMGWYRQAPWKERELVAAITRGGSTNYADSVKGRFTISRDNEKNTVYLQMNSLKPEDTAVYYCAVDTVRNHRMDYWGQGTQVTVSS,low polyreactivity
18,QVQLVESGGGLVQAGGSLRLSCAASGRIFLDYAMGWYRQAPGKERELVAAINSGGRTNYADSVKGRFTISRDNAKNTVYLQMNSLKPEDTAVYYCAAGYWPRWFWPYEYWGQGTQVTVSS,low polyreactivity
19,QVQLVESGGGLVQAGGSLRLSCAASGRIFLDYVMGWYRQAPGKERELVAAISWSGDRTDYADSVKGRFTISRDNAKNTVYLQMNSLKPEDTAVYYCASTWYFAYSDDYKFDYWGQGTQVTVSS,low polyreactivity
20,QVQLVESGGGLVQAGGSLRLSCAASGRIFLFYAMGWYRQGPGKERALVAAINWSGTRTYYADSVKGRFTISRDNAKNSVYLHMNSLKPEDTAVYDCNVDTSVYDFSEYDYWGQGTQVTVSS,high polyreactivity
